In patent US20250019453A1 (SYNTHEKINE, published 2025):

T1: mIL2Rb ECD antigen (murine, UniProt P16297 27-240)
T1 construct: The immunogen was the ECD fused to human IgG1 hinge and Fc; also called ECD of IL2Rb (mouse)
T1 sequence: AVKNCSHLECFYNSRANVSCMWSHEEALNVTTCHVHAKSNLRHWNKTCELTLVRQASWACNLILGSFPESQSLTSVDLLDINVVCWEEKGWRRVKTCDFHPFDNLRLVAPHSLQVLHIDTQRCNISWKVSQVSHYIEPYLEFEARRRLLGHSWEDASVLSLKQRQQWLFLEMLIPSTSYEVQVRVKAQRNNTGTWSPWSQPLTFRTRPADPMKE

T2: hIL2Rg ECD antigen (human, UniProt P31785 23-262)
T2 construct: The immunogen was the ECD fused to human IgG1 hinge and Fc; also called ECD of IL2Rg (human); human IL-2Rγ
T2 sequence: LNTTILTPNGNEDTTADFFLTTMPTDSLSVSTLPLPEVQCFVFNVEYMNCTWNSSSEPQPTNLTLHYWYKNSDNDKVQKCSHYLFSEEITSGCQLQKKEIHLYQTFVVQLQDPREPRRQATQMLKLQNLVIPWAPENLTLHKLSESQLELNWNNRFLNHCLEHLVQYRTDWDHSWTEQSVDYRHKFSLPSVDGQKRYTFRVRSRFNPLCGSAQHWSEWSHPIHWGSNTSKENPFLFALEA

T3: mIL2Rg ECD antigen (murine, UniProt P34902 23-263)
T3 construct: The immunogen was the ECD fused to human IgG1 hinge and Fc; also called ECD of IL2Rg (mouse)
T3 sequence: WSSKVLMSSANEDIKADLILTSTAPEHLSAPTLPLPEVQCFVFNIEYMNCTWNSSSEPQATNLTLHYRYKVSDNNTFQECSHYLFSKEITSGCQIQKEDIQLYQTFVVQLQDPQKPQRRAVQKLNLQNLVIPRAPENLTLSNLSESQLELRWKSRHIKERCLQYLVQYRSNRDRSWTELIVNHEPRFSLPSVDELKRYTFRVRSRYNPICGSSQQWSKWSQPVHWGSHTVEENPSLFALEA


Target: T1, mIL2Rb ECD antigen
Assay: PE-ELISA of phage clones

Binder | binding result
DR1471 (VHH, As a his-tagged phage clone periplasmic extract) VHH: EVQLVESGGGLVQAGGSLRLSCVFSGRAPASYAMAWFRQAVGNEREFVAAINWSGRRTYYADSVKGRFTISKDNAQNTAYLQMTNLEPEDTATYYCNAYLSGTYYWGQGTQVTVSS | binds
DR1472 (VHH, As a his-tagged phage clone periplasmic extract) VHH: EVQLVESGGGLVRAGDSLRLSCAVSGLASSSFFMTWFRQGQGKEREFVATISWTGRTSYYAASVKGRFTVSRDNAKNTVYLQMNSLNSEDTAVYFCAAYPRTLVRNREPIHWGQGTQVTVSS | binds

Target: T2, hIL2Rg ECD antigen
Assay: PE-ELISA of phage clones

Binder | binding result
hIL2Rg_VHH-23 (VHH, As a his-tagged phage clone periplasmic extract) VHH: QVQLQESGGGLVQPGGSLRLSCAASGFSFSSYPMTWARQAPGKGLEWVSTIASDGGSTAYAASVEGRFTISRDNAKSTLYLQLNSLKTEDTAMYYCTKGYGDGTPAPGQGTQVTVSS | binds
hIL2Rg_VHH-5 (VHH, As a his-tagged phage clone periplasmic extract) VHH: QVQLQESGGGSVQAGGSLRLSCAASGFSFSSYPMTWARQAPGKGLEWVSTIASDGGSTAYAASVEGRFTISRDNAKSTLYLQLNSLKTEDTAMYYCTKGYGDGTPAPGQGTQVTVSS | binds
hIL2Rg_VHH-18 (VHH, As a his-tagged phage clone periplasmic extract) VHH: QVQLQESGGGLVQPGGSLRLSCAASGFTFSSYPMTWARQAPGKGLEWVSTIASDGGSTAYAASVEGRFTISRDNAKSTLYLQLNSLKTEDTAMYYCTKGYGDGTPAPGQGTQVTVSS | binds
hIL2Rg_VHH-2 (VHH, As a his-tagged phage clone periplasmic extract) VHH: QVQLQESGGGSVPAGGSLKLSCAASGFSFSSYPMTWARQAPGKGLEWVSTIASDGGSTAYAASVEGRFTISRDNAKSTLYLQLNSLKTEDTAMYYCTKGYGDGTPAPGQGTQVTVSS | binds
hIL2Rg_VHH-9 (VHH, As a his-tagged phage clone periplasmic extract) VHH: QVQLQESGGGSVQAGGSLRLSCTASGFTFDDSDMGWYRQAPGGECELVTISSDGSTYYADSVKGRFTISQDNAKNTVYLQMNSLKPEDTAVYYCAAEPRGYYSNYGGRRECNYWGQGTQVTVSS | binds
hIL2Rg_VHH-14 (VHH, As a his-tagged phage clone periplasmic extract) VHH: QVQLQESGGGSVQAGGSLKLSCTVSGFTADDSDMGWYRQGPGNECELVTISSDGSTYYADSVKGRFTISQDNAKNTVYLQMNSLKPEDTAVYYCAAEPRGYYSNYGGRRECNYWGQGTQVTVSS | binds
hIL2Rg_VHH-4 (VHH, As a his-tagged phage clone periplasmic extract) VHH: QVQLQESGGGSVQAGGSLRLSCTASGFTFDDSDMGWYRQAPGNECELVSTISSDGNTYYTDSVKGRFTISQDNAKNTVYLQMNSLGPEDTAVYYCAAEPRGYYSNYGGRRECNYWGQGTQVTVSS | binds
hIL2Rg_VHH-13 (VHH, As a his-tagged phage clone periplasmic extract) VHH: QVQLQESGGGSVQAGGSLRLSCTASRFIFDDSDMGWYRQAPGNECELVSTISSDGSTYYADSVKGRFTISRDNAKNTVYLQMNSLKPEDTAVYYCAAEPRGYYSNYGGRRECNYWGQGTQVTVSS | binds
hIL2Rg_VHH-17 (VHH, As a his-tagged phage clone periplasmic extract) VHH: QVQLQESGGGLVQPGGSLRLSCAASGFTFSNAHMSWVRQAPGKGREWISSIYSGGSTWYADSVKGRFTISRDNSKNTLYLQLNSLKTEDTAMYYCAENRLHYYSDDDSLRGQGTQVTVSS | binds
hIL2Rg_VHH-6 (VHH, As a his-tagged phage clone periplasmic extract) VHH: QVQLQESGGGAVQAGGSLRLSCAASGFTFSNAHMSWVRQAPGKGREWISSIYSGGSTWYADSVKGRFTISRDNSKNTLYLQLNSLKTEDTAMYYCAENRLHYYSDDDSLRGQGTQVTVSS | binds
hIL2Rg_VHH-11 (VHH, As a his-tagged phage clone periplasmic extract) VHH: QVQLQESGGGSVQAGGSLRLSCAASGFTFSSAHMSWVRQAPGKGREWIASIYSGGGTFYADSVKGRFTISRDNAKNTLYLQLNSLKTEDTAMYYCATNRLHYYSDDDSLRGQGTQVTVSS | binds
hIL2Rg_VHH-12 (VHH, As a his-tagged phage clone periplasmic extract) VHH: QVQLQESGGGSVQAGGSLRLSCAASGFTFSNAHMSWVRQAPGKGREWISSIYSGGSTWYADSVKGRFTISRDNSKNTLYLQLNSLKTEDTAMYYCAENRLHYYSDDDSLRGQGTQVTVSS | binds
hIL2Rg_VHH-16 (VHH, As a his-tagged phage clone periplasmic extract) VHH: QVQLQESGGGLVQPGGSLRLSCVASGFTFSNAHMSWVRQAPGKGREWISSIYSGGSTWYADSVKGRFTISRDNSKNTLYLQLNSLKTEDTAMYYCAENRLHYYSDDDSLRGQGTQVTVSS | binds
hIL2Rg_VHH-10 (VHH, As a his-tagged phage clone periplasmic extract) VHH: QVQLQESGGGSVQAGGSLRLSCAASGSIYSSAYIGWFRQAPGKKREGVAGIYTRDGSTAYADSVKGRFTISQDSAKKTVYLQMNSLKPEDTAMYYCAAGRRTKSYVYIFRPEEYNYWGQGTQVTVSS | binds
hIL2Rg_VHH-1 (VHH, As a his-tagged phage clone periplasmic extract) VHH: QVQLQESGGGSVQAGGSLRLSCAASGFTFDDSDMGWYRQAPGNECDLVSTISSDGSTYYADSVKGRFTISQDNAKNTVYLQMDSVKPEDTAVYYCAADFMIAIQAPGAGCWGQGTQVTVSS | binds
hIL2Rg_VHH-7 (VHH, As a his-tagged phage clone periplasmic extract) VHH: QVQLQESGGGLVQPGGSLRLSCAASGFTFDDREMNWYRQAPGNECELVSTISSDGSTYYADSVKGRFTISQDNAKNTVYLQMDSVKPEDTAVYYCAADFMIAIQAPGAGCWGQGTQVTVSS | binds

Target: T3, mIL2Rg ECD antigen
Assay: PE-ELISA of phage clones

Binder | binding result
mIL2Rg_VHH3 (VHH, As a his-tagged phage clone periplasmic extract) VHH: QVQLQESGGGSVQAGASLRLSCSVSGFTFDESVMSWLRQGPGNECDAVAIISSDDNTYYDDSVKGRFTISEDNAKNMVYLQMNSLKPEDTAVYYCAARRRRPVYDSDYELRPRPLCGDFGVWGQGTQVTVSS | binds
mIL2Rg_VHH5 (VHH, As a his-tagged phage clone periplasmic extract) VHH: QVQLQESGGGSVQAGGSLRLSCVASGDVYGRNSMAWFRQAPGKEREGVAVGYSVVTTTYYADSVKGRFTISEDNDKNTVYLEMNSLKPEDTAMYYCAADGNLWRGLRPSEYTYWGQGTQVTVSS | binds
mIL2Rg_VHH4 (VHH, As a his-tagged phage clone periplasmic extract) VHH: QVQLQESGGGSVQAGGSLRLSCIGSGLPFDEDDMGWYRQAPGNECELVSSISSDGTAYYADSVKGRFTISRDNAKNTVLLQMNSLKPEDTAVYYCAAGVHRQFGGSSSCGDAFYGMDYWGKGTQVTVSS | binds
mIL2Rg_VHH2 (VHH, As a his-tagged phage clone periplasmic extract) VHH: QVQLQESGGGSVQPGGSLRLSCAASGSTYANYLMGWFRQAPGKEREGVAAIYSGGGSTYYADSVKGRFTISQDNAKNTLYLQMNSLKPEDTAMYYCAAASAVKGDKGDIVVVVTGTQRMEYDYWGHGTQVTVSS | binds
mIL2Rg_VHH7 (VHH, As a his-tagged phage clone periplasmic extract) VHH: QVQLQESGGGLVQPGGSLRLSCTVSGFTFDESDMGWLRQNPGNECGVVSVITSDDNPYYDDSVKGRFTISEDNAKNMVYLQMNSLKPEDTGVYYCATRSRQPVYSRDYELRPRPLCGDFGVWGQGTQVTVSS | binds
mIL2Rg_VHH6 (VHH, As a his-tagged phage clone periplasmic extract) VHH: QVQLQESGGGSVQAGGSLRLSCATSGFPYSRYCMGWFRQAPGKEREGVAAIEPDGSTSYADSVKGRFTISQDNAVNTLYLQMNNLKPEDTAMYYCAADERCFYLKDYDLRRPAQYRYWGQGTQVTVSS | binds
mIL2Rg_VHH9 (VHH, As a his-tagged phage clone periplasmic extract) VHH: QVQLQESGGGSVQAGGSLRLSCAASGFTFDDFDMGWYRQAPGNECELVSTISDDGSTYYADSVKGRSSISRDNAKNTVYLQMNSLKPEDTAVYYCAAEGALGSKTNCGWVGNFGYWGQGTQVTVSS | binds
mIL2Rg_VHH11 (VHH, As a his-tagged phage clone periplasmic extract) VHH: QVQLQESGGGLVQPGGSLKLSCAASGFTFSDRDMGWYRQAPGNECERVSTISDDGSTYYADSVKGRSSISRDNAKNTVYLQMNSLKPEDTAVYYCAAEGALGSKTNCGWVGNFGYWGQGTQVTVSS | binds
mIL2Rg_VHH10 (VHH, As a his-tagged phage clone periplasmic extract) VHH: QVQLQESGGGLVQPGGSLRLSCAASGFTFDDFDMGWYRQAPGNECELVSTISDDGSTYYADSVKGRSSISRDNAKSTVYLQMNRLKPEDTGVYYCAAEGALGSKTNCGWVGNFGYWGQGTQVTVSS | binds
mIL2Rg_VHH8 (VHH, As a his-tagged phage clone periplasmic extract) VHH: QVQLQESGGGSVQAGGSLRLSCTASGFTFDDFDMGWYRQAPGNECELVSTISDDGSTYYADSVKGRSSISRDNAKNTVYLQMNRLKPEDTGVYYCAAEGALGSKTNCGWVGNFGYWGQGTQVTVSS | binds
